For the data set the following is noted: Bacillus caldolyticus, pH 7, CD, sodium cacodylate-HCl 100 mM, reversible: yes, whole UniProt chain shown.

B1: Cold shock protein CspB wild type, P41016 (protein)
chain: MQRGKVKWFNNEKGYGFIEVEGGSDVFVHFTAIQGEGFKTLEEGQEVSFEIVQGNRGPQAANVVKL
As to B1, under “25 °C, GdnHCl”, the denaturant m value was 1.77 kcal/mol/M, the “denaturant midpoint (higher = more stable)” value was 2.68 M and the unfolding free energy came out at 5.02 kJ/mol. Also, the unfolding free energy (70 °C, Thermal, NaCl 2 M) was 9.2 kJ/mol. Besides, the unfolding free energy (70 °C, Thermal) worked out at 4.52 kJ/mol. For the same protein, where the note is “Thermal”, the Tm is 76.9 °C and the “unfolding enthalpy (van 't Hoff)” value was 245 kJ/mol.

What is called Tm is the temperature at which the thermal transition is half complete.

The record behind these values is FireProtDB (doi:10.1006/jmbi.2001.5050).
